This is an account of results in paper PMC5603883, “Challenges to Design and Develop of DNA Aptamers for Protein Targets. II. Development of the Aptameric Affinity Ligands Specific to Human Plasma Coagulation Factor VIII Using SEC-SELEX”.

The target of this series is coagulation factor VIII (plasma-derived, Haemoctin 500) (Homo sapiens, UniProt P00451 20-2351). The series is described as follows: nitrocellulose filter binding, fluorescence of filtrate; 5 mM CaCl2, 5 mM MgCl2; Tris 40 mM, NaCl 117 mM, CaCl2 5 mM, MgCl2 5 mM, pH 7.4; selection at 4 °C, Kd assay temperature not stated; FVIII 20 ng (700 pM), DNA 0.5-700 nM. As to conditions: protein: commercial; label: fluorescein via labelled reverse primer (S3) stated for the labelling PCR; the labelled strand is not explicitly specified; predicted three-branch stem-loop.
coagulation factor VIII (plasma-derived, Haemoctin 500), sequence (P00451 20-2351): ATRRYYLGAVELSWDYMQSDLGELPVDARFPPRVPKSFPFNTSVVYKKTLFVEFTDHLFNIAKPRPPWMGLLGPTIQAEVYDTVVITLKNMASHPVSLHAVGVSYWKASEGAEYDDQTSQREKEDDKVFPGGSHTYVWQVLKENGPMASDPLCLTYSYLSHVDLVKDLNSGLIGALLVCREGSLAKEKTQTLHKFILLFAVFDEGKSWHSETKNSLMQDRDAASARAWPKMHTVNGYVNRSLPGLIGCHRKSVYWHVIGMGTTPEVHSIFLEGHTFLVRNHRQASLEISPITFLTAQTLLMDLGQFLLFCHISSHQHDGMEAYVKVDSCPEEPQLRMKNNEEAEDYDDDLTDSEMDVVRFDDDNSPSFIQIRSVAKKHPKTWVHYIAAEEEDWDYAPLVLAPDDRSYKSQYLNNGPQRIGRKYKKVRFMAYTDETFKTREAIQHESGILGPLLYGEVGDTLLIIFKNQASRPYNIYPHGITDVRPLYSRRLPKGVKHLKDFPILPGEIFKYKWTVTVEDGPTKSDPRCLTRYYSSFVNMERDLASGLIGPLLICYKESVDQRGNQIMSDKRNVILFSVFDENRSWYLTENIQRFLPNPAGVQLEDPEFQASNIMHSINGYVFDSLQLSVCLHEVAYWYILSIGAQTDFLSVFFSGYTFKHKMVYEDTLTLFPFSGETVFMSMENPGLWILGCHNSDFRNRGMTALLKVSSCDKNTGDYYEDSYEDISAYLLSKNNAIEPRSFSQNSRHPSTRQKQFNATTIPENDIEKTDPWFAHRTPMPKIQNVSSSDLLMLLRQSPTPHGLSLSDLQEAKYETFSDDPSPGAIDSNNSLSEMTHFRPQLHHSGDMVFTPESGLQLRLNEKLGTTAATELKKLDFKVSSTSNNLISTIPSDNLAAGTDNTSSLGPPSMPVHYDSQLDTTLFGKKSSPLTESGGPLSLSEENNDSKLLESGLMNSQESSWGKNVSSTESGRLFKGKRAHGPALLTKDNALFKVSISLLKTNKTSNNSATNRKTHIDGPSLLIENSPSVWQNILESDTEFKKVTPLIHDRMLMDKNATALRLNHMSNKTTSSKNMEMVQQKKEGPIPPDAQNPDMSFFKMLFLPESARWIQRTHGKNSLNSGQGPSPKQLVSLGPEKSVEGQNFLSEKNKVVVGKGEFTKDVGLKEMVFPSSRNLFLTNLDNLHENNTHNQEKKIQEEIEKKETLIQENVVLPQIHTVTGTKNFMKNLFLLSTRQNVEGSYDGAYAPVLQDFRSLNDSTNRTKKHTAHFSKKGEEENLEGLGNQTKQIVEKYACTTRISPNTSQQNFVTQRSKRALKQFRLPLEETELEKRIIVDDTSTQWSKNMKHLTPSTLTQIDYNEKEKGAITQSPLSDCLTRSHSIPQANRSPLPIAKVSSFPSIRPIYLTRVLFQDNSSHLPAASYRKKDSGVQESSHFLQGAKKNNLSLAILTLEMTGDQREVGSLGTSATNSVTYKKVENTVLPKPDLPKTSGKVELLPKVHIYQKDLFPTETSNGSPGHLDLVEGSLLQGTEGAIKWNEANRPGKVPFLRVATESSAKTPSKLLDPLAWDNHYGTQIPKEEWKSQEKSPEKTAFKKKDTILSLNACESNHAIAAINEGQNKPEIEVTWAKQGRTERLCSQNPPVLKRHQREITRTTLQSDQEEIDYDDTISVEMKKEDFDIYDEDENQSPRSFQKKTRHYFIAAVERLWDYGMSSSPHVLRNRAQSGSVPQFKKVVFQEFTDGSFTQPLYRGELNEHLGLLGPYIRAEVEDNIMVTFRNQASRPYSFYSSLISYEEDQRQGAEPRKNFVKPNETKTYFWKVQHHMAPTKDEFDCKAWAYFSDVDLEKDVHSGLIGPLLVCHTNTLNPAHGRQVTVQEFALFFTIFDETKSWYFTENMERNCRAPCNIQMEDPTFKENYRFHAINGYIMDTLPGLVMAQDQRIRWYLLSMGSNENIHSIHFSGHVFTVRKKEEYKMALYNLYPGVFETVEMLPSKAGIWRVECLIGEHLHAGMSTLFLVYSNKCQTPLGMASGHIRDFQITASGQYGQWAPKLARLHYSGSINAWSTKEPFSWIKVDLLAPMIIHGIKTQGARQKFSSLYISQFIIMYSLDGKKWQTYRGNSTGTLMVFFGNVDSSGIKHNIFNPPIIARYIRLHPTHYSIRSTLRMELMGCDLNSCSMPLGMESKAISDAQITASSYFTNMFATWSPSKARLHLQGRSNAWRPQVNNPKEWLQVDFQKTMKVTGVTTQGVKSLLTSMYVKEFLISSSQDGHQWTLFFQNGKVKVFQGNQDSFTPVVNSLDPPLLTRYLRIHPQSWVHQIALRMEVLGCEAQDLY

B1: FVIII aptamer (full-length clone, 77 nt) (ssDNA)
DNA: GGTGTTACTCTTCATGTGGATCCGTACGTCCTGGGCTTCTTGATCGTCAGCCGAAGAATTCAGCACCCTAGCCTCGT
For the molecule B1, the Kd is 925 ± 11.6 nM.

In general, Kd refers to the constant that tells how readily two partners part at equilibrium.
